Assay results from article doi:10.1101/2025.05.13.653815, “Roles of the MO25 protein Pmo25 in contractile-ring stability and localization of the NDR kinase Sid2 during cytokinesis” (bioRxiv, 2025).

Legend:
[1] = biological target: T1, MBP-Ync13-full length-6His (S. pombe, UniProt O13683 1-1237); assay: pull-down; Kd by supernatant depletion: various concentrations of MBP-Ync13 on amylose beads with a fixed low concentration of Pmo25-(19-329)-6His, 1 h at 4°C; supernatant on SDS-PAGE, Coomassie Blue; one site binding equation; details: both partners purified
T1 construct: pET21a-MBP: MBP-TEV-GGSGGS stands before Ync13, 6xHis after it; not shown: MBP, N-terminal, kept; His6, C-terminal, kept
T1 sequence (looked up): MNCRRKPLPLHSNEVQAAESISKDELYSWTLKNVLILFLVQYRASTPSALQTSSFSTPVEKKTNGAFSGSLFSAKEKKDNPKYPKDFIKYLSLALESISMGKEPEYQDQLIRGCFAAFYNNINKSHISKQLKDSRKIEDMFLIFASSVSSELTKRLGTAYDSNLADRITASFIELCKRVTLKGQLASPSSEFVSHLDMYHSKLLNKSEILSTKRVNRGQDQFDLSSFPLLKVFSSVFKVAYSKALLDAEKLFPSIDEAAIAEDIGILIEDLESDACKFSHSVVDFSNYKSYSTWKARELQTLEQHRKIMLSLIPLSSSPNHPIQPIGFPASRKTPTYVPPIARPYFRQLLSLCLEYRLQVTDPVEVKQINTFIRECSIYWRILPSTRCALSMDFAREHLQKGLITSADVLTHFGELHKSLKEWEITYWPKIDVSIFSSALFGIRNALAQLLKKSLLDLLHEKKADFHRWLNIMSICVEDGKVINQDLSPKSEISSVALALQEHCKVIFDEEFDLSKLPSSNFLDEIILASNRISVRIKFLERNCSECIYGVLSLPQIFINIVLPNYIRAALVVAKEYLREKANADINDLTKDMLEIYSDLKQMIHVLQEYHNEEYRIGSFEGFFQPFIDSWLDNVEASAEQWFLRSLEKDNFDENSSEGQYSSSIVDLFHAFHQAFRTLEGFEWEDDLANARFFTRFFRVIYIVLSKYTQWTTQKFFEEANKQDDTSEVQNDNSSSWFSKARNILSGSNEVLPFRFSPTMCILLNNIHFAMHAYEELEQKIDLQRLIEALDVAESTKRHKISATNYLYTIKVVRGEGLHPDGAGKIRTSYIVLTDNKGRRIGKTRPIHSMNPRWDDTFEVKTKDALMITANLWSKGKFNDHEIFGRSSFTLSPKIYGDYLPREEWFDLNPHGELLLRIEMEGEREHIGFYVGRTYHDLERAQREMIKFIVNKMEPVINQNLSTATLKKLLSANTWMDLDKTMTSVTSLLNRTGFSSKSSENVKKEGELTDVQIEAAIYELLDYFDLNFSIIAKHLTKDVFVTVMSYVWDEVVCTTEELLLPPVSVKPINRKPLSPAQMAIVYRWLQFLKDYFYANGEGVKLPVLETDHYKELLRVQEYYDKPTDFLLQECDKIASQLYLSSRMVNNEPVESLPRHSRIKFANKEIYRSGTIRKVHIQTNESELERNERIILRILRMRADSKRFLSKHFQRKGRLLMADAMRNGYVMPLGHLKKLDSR

[2] = biological target: T2, MBP-Ync13-(591-1130)-6His (S. pombe, UniProt O13683 591-1130); assay: as above; details: both partners purified
T2 construct: The cloning of this truncation is not described; not shown: MBP, N-terminal, kept; His6, C-terminal, kept
T2 sequence (looked up): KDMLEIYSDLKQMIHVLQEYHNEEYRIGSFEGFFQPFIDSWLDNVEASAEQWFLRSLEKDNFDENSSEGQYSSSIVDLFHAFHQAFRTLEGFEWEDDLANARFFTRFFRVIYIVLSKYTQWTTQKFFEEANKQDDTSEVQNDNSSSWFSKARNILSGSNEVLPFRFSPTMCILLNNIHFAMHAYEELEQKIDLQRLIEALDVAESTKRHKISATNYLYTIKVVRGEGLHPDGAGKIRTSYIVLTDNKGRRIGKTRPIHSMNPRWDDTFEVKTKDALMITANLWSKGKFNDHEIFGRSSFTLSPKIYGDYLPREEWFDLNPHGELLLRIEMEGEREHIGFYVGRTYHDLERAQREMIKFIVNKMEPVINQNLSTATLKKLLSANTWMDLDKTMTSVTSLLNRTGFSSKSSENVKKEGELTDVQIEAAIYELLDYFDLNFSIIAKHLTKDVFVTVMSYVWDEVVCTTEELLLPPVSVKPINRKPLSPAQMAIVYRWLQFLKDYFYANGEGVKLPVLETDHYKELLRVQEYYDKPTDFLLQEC

Kd [1]: 490 nM
Kd [2]: 620 nM
B1: Pmo25-(19-329)-6His (domain or fragment, S. pombe, UniProt Q9P7Q8 19-329, looked up)
chain: LCDNLPKLEINNDKKKSFEEVSKCLQNLRVSLCGTAEVEPDADLVSDLSFQIYQSNLPFLLVRYLPKLEFESKKDTGLIFSALLRRHVASRYPTVDYMLAHPQIFPVLVSYYRYQEVAFTAGSILRECSRHEALNEVLLNSRDFWTFFSLIQASSFDMASDAFSTFKSILLNHKSQVAEFISYHFDEFFKQYTVLLKSENYVTKRQSLKLLGEILLNRANRSVMTRYISSAENLKLMMILLRDKSKNIQFEAFHVFKLFVANPEKSEEVIEILRRNKSKLISYLSAFHTDRKNDEQFNDERAFVIKQIERL
notes: pET21a, between the N-terminal T7 tag and the C-terminal 6xHis tag; not shown: His6, C-terminal, kept
